Target: Strep-SUMO-Bos1

Chain of Ssa1 (P10591 whole entry): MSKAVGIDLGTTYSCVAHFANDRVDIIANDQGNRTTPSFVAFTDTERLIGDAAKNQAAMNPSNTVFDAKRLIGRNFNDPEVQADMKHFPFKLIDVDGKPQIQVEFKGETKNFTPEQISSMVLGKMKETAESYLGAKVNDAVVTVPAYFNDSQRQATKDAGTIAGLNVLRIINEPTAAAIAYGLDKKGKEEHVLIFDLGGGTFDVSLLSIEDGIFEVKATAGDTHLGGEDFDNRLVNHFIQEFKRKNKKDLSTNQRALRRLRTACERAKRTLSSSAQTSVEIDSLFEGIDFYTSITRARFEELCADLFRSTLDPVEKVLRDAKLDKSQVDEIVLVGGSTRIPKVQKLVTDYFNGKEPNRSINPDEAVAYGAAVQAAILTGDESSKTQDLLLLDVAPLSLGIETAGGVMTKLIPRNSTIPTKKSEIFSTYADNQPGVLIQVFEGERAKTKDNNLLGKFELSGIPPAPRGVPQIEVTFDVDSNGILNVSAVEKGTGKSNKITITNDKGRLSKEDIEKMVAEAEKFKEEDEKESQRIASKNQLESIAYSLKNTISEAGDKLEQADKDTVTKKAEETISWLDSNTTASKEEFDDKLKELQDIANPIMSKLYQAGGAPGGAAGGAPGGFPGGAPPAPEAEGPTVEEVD

K (Soluble) from the Ssa1 concentration dependence of soluble Bos1 (sedimentation of 3 μM Bos1, Western blot, fit to Equation 2), Ssa1 alone: 0.73 µM
K (Soluble) from the Ssa1 concentration dependence of soluble Bos1 (sedimentation of 3 μM Bos1, Western blot, fit to Equation 2), equimolar Ssa1 and Ydj1: 0.014 µM
Substance: Ssa1 (from UniProt P10591 1-642) (natural protein)
